Experimental data reported in publication PMC5684335, “ER-associated degradation regulates Alzheimer’s amyloid pathology and memory function by modulating γ-secretase activity” (Nature Communications, 2017).

Target: T1, membralin-mCherry (mouse, UniProt Q8CIV2 1-574)
T1 construct: membralin (TMEM259), mouse cDNA from the IMAGE consortium, subcloned into pmCherry-N1; FRET acceptor; also called mCherry-tagged membralin; source: HEK293T, transfected, in living cells
Assay: FRET or BRET; acceptor photobleaching in HEK293T co-transfected 24 h with target-EGFP (donor) and membralin-mCherry (acceptor); 10 cells, three independent experiments
Settings: not given

T1 sequence (Q8CIV2 whole entry): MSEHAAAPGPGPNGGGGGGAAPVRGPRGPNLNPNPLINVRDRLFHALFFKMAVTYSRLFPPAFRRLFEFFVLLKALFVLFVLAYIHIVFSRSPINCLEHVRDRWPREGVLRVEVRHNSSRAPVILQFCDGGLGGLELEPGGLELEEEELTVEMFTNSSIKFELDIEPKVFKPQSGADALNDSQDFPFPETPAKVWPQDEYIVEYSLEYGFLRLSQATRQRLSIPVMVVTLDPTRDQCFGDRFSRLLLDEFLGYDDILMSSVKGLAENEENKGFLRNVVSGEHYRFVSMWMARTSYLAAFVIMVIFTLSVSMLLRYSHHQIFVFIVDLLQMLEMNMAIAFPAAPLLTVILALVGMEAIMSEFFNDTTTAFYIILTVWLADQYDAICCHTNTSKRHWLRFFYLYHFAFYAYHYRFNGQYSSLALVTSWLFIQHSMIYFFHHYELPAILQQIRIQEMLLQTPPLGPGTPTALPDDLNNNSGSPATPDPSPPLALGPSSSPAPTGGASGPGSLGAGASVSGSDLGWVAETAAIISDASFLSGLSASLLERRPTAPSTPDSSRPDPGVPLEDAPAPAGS

| FRET efficiency [%] | Molecule |
| --- | --- |
| 33.9 | FAM8A1-EGFP (from UniProt Q9UBU6 1-413) (natural protein) |

Same assay, conditions: partners not purified

| FRET efficiency [%] | Molecule |
| --- | --- |
| 21.8 | SYVN1-EGFP (natural protein, mouse, UniProt Q9DBY1 1-612, looked up, SYVN1 (Hrd1), mouse cDNA from the IMAGE consortium, subcloned into pEGFP-N1; FRET donor; vector pEGFP-N1; also called SYVN1-GFP; source: HEK293T, transfected, in living cells) MFRTAVMMAASLALTGAVVAHAYYLKHQFYPTVVYLTKSSPSMAVLYIQAFVLVFLLGKVMGKVFFGQLRAAEMEHLLERSWYAVTETCLAFTVFRDDFSPRFVALFTLLLFLKCFHWLAEDRVDFMERSPNISWLFHCRIVSLMFLLGILDFLFVSHAYHSILTRGASVQLVFGFEYAILMTMVLTIFIKYVLHSVDLQSENPWDNKAVYMLYTELFTGFIKVLLYMAFMTIMIKVHTFPLFAIRPMYLAMRQFKKAVTDAIMSRRAIRNMNTLYPDATPEELQAVDNVCIICREEMVTGAKRLPCNHIFHTSCLRSWFQRQQTCPTCRMDVLRASLPAQSPPPPEPADQGPPPAPHPQPLLPQPPNFPQGLLPPFPPGMFPLWPPMGPFPPVPPPPSSGEAAAPPPTSTAVSRPSGAATTTAAGTSTSAPAPGSVPGPEAGPAPGFPFPPPWMGMPLPPPFAFPPMPVPPAGFAGLTPEELRALEGHERQHLEARLQSLRNIHTLLDAAMLQINQYLTVLASLGPPRPATSVNPTEETASTVVSAAPSTSAPSSEAPTPSPGASPPIPEAEKPPAPESVGIVEELPEDGEPDAAELRRRRLQKLESPVAH |
| 12.3 | Derlin1-EGFP (natural protein, mouse, UniProt Q99J56 1-251, looked up, Derlin1, mouse cDNA from the IMAGE consortium, subcloned into pEGFP-N1; FRET donor; vector pEGFP-N1; source: HEK293T, transfected, in living cells) MSDIGDWFRSIPAITRYWFAATVAVPLIGKLGIISPAYFFLWPEAFLYRFQIWRPFTATFYFPVGPGTGFLYLVNLYFLYQYSTRLEAGAFDGRPADYLFMLLFNWICIVITGLAMDMQLLMIPLIMSVLYVWAQLNRDLIVSFWFGTRFKACYLPWVILGFNYIIGGSVINELIGNLVGHLYFFLMFRYPMDLGGRNFLSTPQFLYRWLPSRRGGVSGFGVPPASMRRAADQNGGGGRHNWGQGFRLGDQ |
| 22.4 | EMC1-EGFP (natural protein, mouse, UniProt Q8C7X2 24-997, looked up, EMC1, mouse cDNA from the IMAGE consortium, subcloned into pEGFP-N1; FRET donor; vector pEGFP-N1; source: HEK293T, transfected, in living cells) YEDQVGKFDWRQQYVGKIKFASLEFSPGSKKLVVATEKNVIAALNSRTGEILWRHVDKGTAEGAVDAMLVHGQDAITVSNGGRLMRSWETNIGGLNWEITLDTGSFQALGLVGLQESVRYIAVLKKTTLTLHHLSSGHLKWVEHLPESDSILYQMVYSYGSGVVWALGIVPFSHVNIVKFNVEDGEIVQQVRVWTPWLQHLTGACGVVDEAVLVCPDPSSHSLHTLALETEWELRQIPLQSPDLEFGSGFQPQVLPTQPSPVAPSRAQFFLQLSPSHYALLHYHHGAVTLLKNFPQATLVSFATTGEKTVAAVMTCRTEVQKPVSAGDGSVASFPETSGAQDSLACFNQTYTINLYLVETGRRLLDTSISFSLEQKGTRPEQLYIQVFLKKDDSVGYRALVQTQDHLQLFLQQLAGKVVLWSREESLAEVVCLEMVDLPLTGAQAELEGEFGKKAAIQDGLLGMFLKRLSSQLILLQAWTSHLWKMFYDARKPRSQIKNEINIDTLARDEFNLQKMMVTVTASGKLFGIESSSGTILWKQYLPNVKPDSSFKLMVQRTTAHFPHPPQCTLLVKDKETGMSSLFVFNPIFGKWSQVAPPVLKRPILQSLLLPVMDQDYAKVLLLVDDEYKVTAFPATRNVLRQLHELAPSIFFYLVDAEQGRLSGYQLRKDLTTELSWELTIPPEVQRVVKVKGKRSSEHVHSQGRVMGDRSVLYKSLNPNLLAVVTESTDVHHERTFIGIFLIDGVTGRIIHSSVQKKARGPVHLVHSENWVVYQYWNSKARRNELTALELYEGTEQYNATAFSSLDRPQLPQVLQQSYIFPSSISAMEATITERGITSRHLLIGLPSGAILSLPKALLDPRRPEIPTEQSREENLIPYSPDVQVHAERFINYNQTVSRMRGIYTAPSGLESTCLVVAYGLDIYQTRVYPSKQFDVLKDDYDYVLISSVLFGLVFATMITKRLAQVKLLNRAWR |
| 26.3 | EMC3-EGFP (natural protein, mouse, UniProt Q99KI3 1-261, looked up, EMC3, mouse cDNA from the IMAGE consortium, subcloned into pEGFP-N1; FRET donor; vector pEGFP-N1; also called EMC3-GFP; source: HEK293T, transfected, in living cells) MAGPELLLDSNIRLWVVLPIVIITFFVGMIRHYVSILLQSDKKLTQEQVSDSQVLIRSRVLRENGKYIPKQSFLTRKYYFNNPEDGFFKKTKRKVVPPSPMTDPTMLTDMMKGNVTNVLPMILIGGWINMTFSGFVTTKVPFPLTLRFKPMLQQGIELLTLDASWVSSASWYFLNVFGLRSIYSLILGQDNAADQSRMMQEQMTGAAMAMPADTNKAFKTEWEALELTDHQWALDDVEEELMARDLHFEGMFKKELQTSIF |
| 33.1 | Ubac2-EGFP (natural protein, mouse, UniProt Q8R1K1 40-345, looked up, Ubac2, mouse cDNA from the IMAGE consortium, subcloned into pEGFP-N1; FRET donor; vector pEGFP-N1; source: HEK293T, transfected, in living cells) FFVYDLHAVKHDLQIWRLICGRIICLDLKDAFCSGLLIYNFRIFERRYGSRKFASFLLGSWVLSALFDFILVEAVQYSLGVTVASNLPSGFLAPVFALFVPFHCSIPRVQVAQILGPLSITNKTLIYILGLQLFTSGSYIWIVAMSGLISGMCYDRKVLQVHQVLRIPGRMAEFFSWALEPIFSSSEPTSEARVGMGATVDIQRQQRMEQLDRQLMLSQFAQVRRQRQQQGGMINWNRLFPPLRQRRNINYQDGPRSEQRASPPLEVSEEQVARLMEMGFSRGDALEALRASNNDLNVATNFLLQH |
